Reference: patent US9212226B2, “Amino acid sequences directed against CXCR4 and other GPCRs and compounds comprising the same” (Ablynx N.V., priority 2008, dated 2015)
Marks after values point to notes of the source that are not given here.

Legend:
[1] = biological target: T1, CXCR4 (Homo sapiens, UniProt P61073); test: [125I]-CXCL12 competition binding on membranes from HEK293T cells transiently expressing CXCR4; details: for Rel. potency, relative to monovalent 238D2: [125I]-CXCL12 displacement, potency relative to those of monovalent 238D2; for Displacem. (%) of [125I]-CXCL12 (maximal displacement), bivalent Nanobodies / pKi, [125I]-CXCL12, bivalent Nanobodies / Binding (binding efficiency, competition binding with [125I]-CXCL12): membranes from HEK293T cells transiently expressing CXCR4; for Displacem. (%) of [125I]-CXCL12 (maximal displacement), bivalent Nanobodies / pKi, [125I]-CXCL12, bivalent Nanobodies: mean ± S.E.M.; for Displacem. (%) of [125I]-CXCL12 at 0.5 μM: at highest test concentration of 0.5 μM (footnote a: no significant displacement); for displacement of specifically bound [125I]-CXCL12: purified ligands, highest Nanobody test concentration 0.5 μM; for Binding (binding efficiency, competition binding with [125I]-CXCL12): screening of Nanobody clone pools
Description: (§1) HEK293T cells were maintained at 37° C. in a humidified 5% CO2, 95% air atmosphere in Dulbecco's modified Eagle's medium (DMEM) containing 2 mM L-glutamine, 50 IU/ml penicillin, 50 μg/ml streptomycin, and 10% (v/v) fetal calf serum. Jurkat cells were cultured in a humidified 5% CO2, 95% air atmosphere in a 1:1 mixture of Dulbecco's modified Eagle's medium (DMEM) and Ham's F12 medium containing 2 mM L-glutamine, 50 IU/ml penicillin, 50 μg/ml streptomycin, and 10% (v/v) fetal calf serum. […] [^125 I]-Labelling— Radiolabeling of Nanobodies with ^125I was performed using the Iodo-gen method (Pierce, Rockford, Ill.) according to the manufacturer's protocol. ^125I-labeled Nanobodies was separated from free iodine (>99%) using a Sephadex G-25 gel filtration column (Amersham Biosciences, Piscataway, N.J.). […] Competition Binding Assays— Membranes from HEK293T cells transiently expressing CXCR3 or CXCR4 were prepared 48 h after transfection as follows. Cells were washed and scraped from the cell culture dishes with ice-cold PBS containing 1 mm EDTA. The scraped cells were pelleted at 1500×g for 10 min at 4° C. The pellet was washed and then resuspended in ice-cold membrane buffer (15 mM Tris, pH 7.5, 1 mM EGTA, 0.3 mM EDTA, and 2 mM MgCl2). The cell suspension was homogenized by 10 strokes at 1200 rpm using a Teflon-glass homogenizer and rotor and further subjected to three freeze-thaw cycles using liquid nitrogen. Membranes were separated by centrifugation at 40,000 g for 25 min at 4° C. The membrane pellet was washed and resuspended in ice-cold Tris-sucrose buffer (20 mM Tris, pH 7.4, and 250 mM sucrose) and frozen in liquid nitrogen. The total protein was determined using a Bradford assay (Bio-Rad). […] Membranes were then harvested over polyethylenimine (0.5%)-treated Whatman GF/C filter plates and washed three times with ice cold binding buffer containing 500 mM NaCl. Plates were counted by liquid scintillation. Inositol Phosphate Accumulation Assay— 24 hours post transfection with pcDNA3.1-CXCR4 and pcDNA1-HA-mG {alpha} qi5 (see Verzijl et al, 2008 supra), 250.000 cells were seeded into 24-wells plates and labelled overnight using inositol-free minimal essential medium supplemented with 1 μCi myo-[2-^3H]-inositol. The next day, the cells were washed once to remove not incorporated myo-[2-^3H]-inositol. […] In agonist experiments, the cells were directly stimulated with test compounds and LiCl (10 mM) in assay buffer for 2 h at 37° C. The stimulation was stopped by aspirating the stimulation medium and adding ice-cold 10 mM formic acid. The accumulated inositol phosphates were isolated by anion exchange chromatography and counted by liquid scintillation. CRE Reporter Gene Assay— HEK239T cells were transfected with pCRE/β-galactosidase (Chen W, Shields T S, Stork P J S, Cone R D (1995) Anal Biochem 226:349-354) and plasmids (pcDEF3 or pcDNA3.1) encoding the indicated receptors. 40,000 transfected cells per well were seeded into 96 well plates and grown in DMEM supplemented with 10% fetal calf serum. The medium was replaced 32 h after transfection by serum-free DMEM supplemented with 0.5% bovine serum albumin and ligands as indicated. […] The β-galactosidase activity was determined by the measurement of absorption at 420 nm with a PowerwaveX340 plate reader (Bio-Tek Instruments Inc., Winooski, Vt.) after incubation with the assay buffer when the OD420 value for forskolin (3 μM) controls reached 0.4-0.6. Chemotaxis Assay— The chemotactic responsiveness of Jurkat 3D cells was assessed using ChemoTx™ plates (Receptor Technologies Ltd., Oxon, UK) in which a upper cell-containing compartment is separated from a lower chemoattractant-containing compartment by a polyvinylpyrollidone-free polycarbonate filter with 5-μm pores. Cells were harvested, washed and resuspended in RPMI containing 0.5% bovine serum albumin and then loaded to 150,000 cells per well in a volume of 25 μl into the upper compartment of the chemotaxis chamber.

[2] = biological target: T1, CXCR4; test: [125I]-238D2 competition binding on membranes from HEK293T cells transiently expressing CXCR4; details: for displacement of [125I]-238D2 from CXCR4: [125I]-238D2 3 nM; for Displacem. (%) of [125I]-238D2 at 0.5 μM: at highest test concentration of 0.5 μM (footnote a: no significant displacement; b: maximum not reached)
Description: as §1

[3] = biological target: T1, CXCR4; test: [125I]-238D4 competition binding on membranes from HEK293T cells transiently expressing CXCR4; details: for displacement of [125I]-238D4 from CXCR4: [125I]-238D4 3 nM; for Displacem. (%) of [125I]-238D4 at 0.5 μM: at highest test concentration of 0.5 μM (footnote a: no significant displacement; b: maximum not reached)
Description: as §1

T1 sequence (P61073 whole entry): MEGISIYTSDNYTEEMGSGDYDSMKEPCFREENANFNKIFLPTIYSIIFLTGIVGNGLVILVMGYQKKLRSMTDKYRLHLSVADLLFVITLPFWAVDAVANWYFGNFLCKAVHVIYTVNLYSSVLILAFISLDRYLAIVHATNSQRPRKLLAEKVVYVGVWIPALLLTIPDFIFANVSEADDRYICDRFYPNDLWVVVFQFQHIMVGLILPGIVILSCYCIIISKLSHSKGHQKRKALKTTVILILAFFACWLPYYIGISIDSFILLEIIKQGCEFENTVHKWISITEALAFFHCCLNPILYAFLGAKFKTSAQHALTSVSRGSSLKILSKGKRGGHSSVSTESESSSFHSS

| Molecule | Rel. potency, relative to monovalent 238D2 [1] | Displacem. (%) of [125I]-CXCL12 (maximal displacement), bivalent Nanobodies [1] | pKi, [125I]-CXCL12, bivalent Nanobodies [1] | Displacem. (%) of [125I]-CXCL12 at 0.5 μM [1] | displacement of specifically bound [125I]-CXCL12 [1] | displacement of [125I]-238D2 from CXCR4 [2] | Displacem. (%) of [125I]-238D2 at 0.5 μM [2] | displacement of [125I]-238D4 from CXCR4 [3] | Displacem. (%) of [125I]-238D4 at 0.5 μM [3] | other results |
| --- | --- | --- | --- | --- | --- | --- | --- | --- | --- | --- |
| 238D2-10GS-238D2: bivalent Nanobody, 238D2 linked to 238D2 by a 10 amino acid GGGGS linker (protein, Nanobody, Nanobody constructs or fragments thereof, bivalent Nanobody, 238D2 linked to 238D2 by a 10 amino acid GGGGS linker) EVQLVESGGGLVQTGGSLRLSCAASGFTFSSYAMSWVRQAPGKGLEWVSGIKSSGDSTRYAGSVKGRFTISRDNAKNMLYLQMYSLKPEDTAVYYCAKSRVSRTGLYTYDNRGQGTQVTVSSGGGGSGGGGSEVQLVESGGGLVQTGGSLRLSCAASGFTFSSYAMSWVRQAPGKGLEWVSGIKSSGDSTRYAGSVKGRFTISRDNAKNMLYLQMYSLKPEDTAVYYCAKSRVSRTGLYTYDNRGQGTQVTVSS | 14^a | 95 ± 5% | 9.16 ± 0.08 |  |  |  |  |  |  |  |
| 237D1: Nanobody (VHH) raised against human CXCR4, SEQ ID NO: 249 (protein, Nanobody, Nanobody constructs or fragments thereof) VHH: EVQLVESGGGLAQPGGPLRLTCEASGVIYSVNDMGWYRQAPGKQRELVAVITSGGGTNYVDSVKGRFTISGDNRKKTVYLQMNSLKPEDTAVYYCSIYYSSGISTLRSWGQGTQVTVSS |  |  |  | 0^a % | unable to displace | unable to inhibit | 0^a % | unable to inhibit | 0^a % | Binding (binding efficiency, competition binding with [125I]-CXCL12) [1]: + (+ = 30-69%) |
| 238B10: Nanobody (VHH) raised against human CXCR4, SEQ ID NO: 242 (protein, Nanobody, Nanobody constructs or fragments thereof) VHH: EVQLVESGGGFVQAGGSLRLSCETSGRPLLGYTIAWFRQVPGKEREFVAYHRWSDGANLYADSVKGRFTISGHNAKNTVSLQMNSLKPEDTAVYYCAAARMTTSNDKEYLYWGQGTQVTVSS |  |  |  |  |  |  |  |  |  | affinity to CXCR4 ([1]; in words): inactive |
| 238D2-20GS-238C5 (protein, Nanobody, Nanobody constructs or fragments thereof) EVQLVESGGGLVQTGGSLRLSCAASGFTFSSYAMSWVRQAPGKGLEWVSGIKSSGDSTRYAGSVKGRFTISRDNAKNMLYLQMYSLKPEDTAVYYCAKSRVSRTGLYTYDNRGQGTQVTVSSGGGGSGGGGSGGGGSGGGGSEVQLMESGGGLVQAGGSLRLACAASGFTFEDYAIGWFRKAPGKEREGVSCISGSDGSTTYADSVKGRFTISTDNAKNTVYLEMNSLKPEDTAVYYCAQQYGVGGRVVCPGPYEYDVWGQGTQVTVSS | 0.18^a | 110 ± 2% | 7.35 ± 0.07 |  |  |  |  |  |  |  |
| 238D2-20GS-238B10 (protein) EVQLVESGGGLVQTGGSLRLSCAASGFTFSSYAMSWVRQAPGKGLEWVSGIKSSGDSTRYAGSVKGRFTISRDNAKNMLYLQMYSLKPEDTAVYYCAKSRVSRTGLYTYDNRGQGTQVTVSSGGGGSGGGGSGGGGSGGGGSEVQLVESGGGFVQAGGSLRLSCETSGRPLLGYTIAWFRQVPGKEREFVAYHRWSDGANLYADSVKGRFTISGHNAKNTVSLQMNSLKPEDTAVYYCAAARMTTSNDKEYLYWGQGTQVTVSS | <0.1^a |  | <7.00 |  |  |  |  |  |  | Displacem. (%) of [125I]-CXCL12 at 0.5 μM, bivalent Nanobodies ([1]; maximum not reached at the highest test concentration of 0.5 μM, displacement at 0.5 μM): 43 ± 11^c % |
| 237A6: Nanobody (VHH) raised against human CXCR4, SEQ ID NO: 248 (protein, Nanobody, Nanobody constructs or fragments thereof) VHH: EVQLVESGGGLVQAGGSLRLSCAASGSIFSLNAMGWYRQAPGKQRELVAGITSSTSTYYADSVKGRFTISRDNTKNTVYLQMNSLKPEDTAVYYCNVDCPDYYSDYECPLEDRGQGTQVTVSS |  |  |  | 0^a % | unable to displace | unable to inhibit | 0^a % | unable to inhibit | 0^a % | Binding (binding efficiency, competition binding with [125I]-CXCL12) [1]: + (+ = 30-69%) |
| 237D2: Nanobody (VHH) raised against human CXCR4, SEQ ID NO: 241 (protein, Nanobody, Nanobody constructs or fragments thereof) VHH: EVQLVESGGGLVQPGGSLRLSCAASGFTFDDYAMSWVRQAPGKGLEWVSAISWNGGSTDYADSVKGRFTISRDNAKNTLYLQMNSLKSEDTAEYYCARDQGPFYSGTYYYTRQYGYRGQGTQVTVSS |  |  |  | 0^a % | unable to displace | unable to inhibit | 0^a % | unable to inhibit | 0^a % |  |
| 238D4-20GS-238D4: bivalent Nanobody, 238D4 linked to 238D4 by a 20 amino acid GGGGS linker (protein, Nanobody, Nanobody constructs or fragments thereof, bivalent Nanobody, 238D4 linked to 238D4 by a 20 amino acid GGGGS linker) EVQLMESGGGLVQAGGSLRLSCAASGRTFNNYAMGWFRRAPGKEREFVAAITRSGVRSGVSAIYGDSVKDRFTISRDNAKNTLYLQMNSLKPEDTAVYTCAASAIGSGALRRFEYDYSGQGTQVTVSSGGGGSGGGGSGGGGSGGGGSEVQLMESGGGLVQAGGSLRLSCAASGRTFNNYAMGWFRRAPGKEREFVAAITRSGVRSGVSAIYGDSVKDRFTISRDNAKNTLYLQMNSLKPEDTAVYTCAASAIGSGALRRFEYDYSGQGTQVTVSS |  | 96 ± 5% |  |  |  |  |  |  |  |  |
